From publication PMC10773654 come the findings set out here.

For this assay, the target named is human Interleukin-1 Receptor Associated Kinase 1 (IRAK1) protein, nanoluciferase BiMC construct (human) (UniProt P51617). Briefly: split reporter.
UniProt P51617, sequence (P51617 whole entry): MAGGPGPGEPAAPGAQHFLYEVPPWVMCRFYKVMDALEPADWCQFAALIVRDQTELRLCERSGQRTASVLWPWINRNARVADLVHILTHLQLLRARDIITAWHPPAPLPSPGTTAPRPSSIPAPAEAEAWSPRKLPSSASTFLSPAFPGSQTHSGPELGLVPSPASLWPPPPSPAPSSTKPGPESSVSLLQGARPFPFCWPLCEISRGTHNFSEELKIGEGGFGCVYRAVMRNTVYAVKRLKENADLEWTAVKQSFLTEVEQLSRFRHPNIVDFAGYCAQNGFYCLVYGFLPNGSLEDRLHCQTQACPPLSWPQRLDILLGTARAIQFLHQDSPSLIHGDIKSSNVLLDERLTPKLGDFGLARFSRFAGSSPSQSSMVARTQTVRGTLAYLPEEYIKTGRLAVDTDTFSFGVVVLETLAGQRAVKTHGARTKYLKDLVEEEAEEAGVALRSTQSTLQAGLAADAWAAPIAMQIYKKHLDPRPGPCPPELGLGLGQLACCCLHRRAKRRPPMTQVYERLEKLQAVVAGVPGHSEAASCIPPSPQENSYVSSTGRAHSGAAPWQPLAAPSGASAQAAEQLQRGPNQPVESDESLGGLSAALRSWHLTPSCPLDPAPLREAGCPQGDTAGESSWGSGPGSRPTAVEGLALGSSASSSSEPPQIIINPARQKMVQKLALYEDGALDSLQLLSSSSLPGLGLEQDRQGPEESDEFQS

“SINV CP truncation mutant ΔRI (RII and Protease domains) (domain or fragment)” yielded a fold BiMC of nanoluciferase relative to the full-length SINV CP protein of 2 fold.
